Assay [1] has as its target T1, Influenza A virus matrix protein M1 (full-length), strain A/Puerto Rico/8/34 (H1N1) (Influenza A virus A/Puerto Rico/8/34 (H1N1)), P03485.
T1 chain: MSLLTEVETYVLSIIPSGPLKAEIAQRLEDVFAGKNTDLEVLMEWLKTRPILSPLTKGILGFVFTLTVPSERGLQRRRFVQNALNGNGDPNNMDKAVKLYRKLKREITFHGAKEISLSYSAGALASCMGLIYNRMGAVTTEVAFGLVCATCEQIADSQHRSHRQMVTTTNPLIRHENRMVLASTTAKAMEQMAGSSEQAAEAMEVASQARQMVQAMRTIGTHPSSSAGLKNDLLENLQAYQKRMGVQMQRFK
The experiment in a line: SAXS. The settings on record: remark: other sources report otherwise.

Assay [2] has as its target T1, Influenza A virus matrix protein M1 …. The experiment in a line: AUC. The conditions noted are these: remark: other sources report otherwise.

B1: Influenza A virus matrix protein M1 (full-length), strain A/Puerto Rico/8/34 (H1N1), P03485 1-252 (natural protein)
chain: MSLLTEVETYVLSIIPSGPLKAEIAQRLEDVFAGKNTDLEVLMEWLKTRPILSPLTKGILGFVFTLTVPSERGLQRRRFVQNALNGNGDPNNMDKAVKLYRKLKREITFHGAKEISLSYSAGALASCMGLIYNRMGAVTTEVAFGLVCATCEQIADSQHRSHRQMVTTTNPLIRHENRMVLASTTAKAMEQMAGSSEQAAEAMEVASQARQMVQAMRTIGTHPSSSAGLKNDLLENLQAYQKRMGVQMQRFK
Regarding B1, in assay [1], the volume fraction of clusters (volume fraction) turned out to be 0.03. The same molecule displayed a volume percent of large associates (volume percent) in assay [2] of 2 to 3.

The values above are taken from publication PMC3865061.
